Source: the DeepSol protein solubility set

Test: soluble on expression in E. coli; label from the status in PepcDB or PDB records

MTASDSAADETGDLRHEAHAWVISLTSGRVTQGDARAFRQWCARSPQHLRAFVEARDLWQALGSAAALPLEPPAVAQIAPRRFGRRWFVGGALAASVALFVLRPSLLDHGLGGADYVTAVGEQRQVQVSGETRIEMNTRTRLNVRRNQEQQETIELLGGEAEIIASHPPQSSLRVMAGSAWLSASRARFNVRSSGDVCVVTCLEGSVRLEHLGQRLDLQAGQQLTFDERRNGPPVPFDVAEVMAWRERMLVFNDVPLATVIDEINRYRPGMLLLLDKALGRRRVQARFSLDQLADVATLIRDAYGIEVTRLPGGVVLLG
soluble on expression in E. coli: not soluble

MAAQVEIEDQESVTNLDNGEIINPISDNAPNFSGDATILLREATFEHNLIKNCFLSGMGSFATETTIVTVRKILTQRLITTKAKFAVFKLFTEAMKRKNNGYANIRYGWYSGSKEEIDRVITYGFSNREIKKVENDVGSHGVGIHLVHHRYSLAAALVGEGDEEGIKNILLCRVILGKPEQIVTGSKQSYPSSNQFDSGVDNLENPRKYVIWSCNMNSYILPTYIVSFKSHLLRGLIGRARSPCVSFSVLMSILSKSLDAARMNLILTSYDDFRKRKLRREQLVRKIREVVGDNLLFKILKNQRR
soluble on expression in E. coli: soluble

MTDVEIKAENGSGDASLEPENLRKIFVGGLTSNTTDDLMREFYSQFGEITDIIVMRDPTTKRSRGFGFVTFSGKTEVDAAMKQRPHIIDGKTVDPKRAVPRDDKNRSESNVSTKRLYVSGVREDHTEDMLTEYFTKYGTVTKSEIILDKATQKPRGFGFVTFDDHDSVDQCVLQKSHMVNGHRCDVRKGLSKDEMSKAQMNRDRETRGGRSRDGQRGGYNGGGGGGGGWGGPAQRGGPGAYGGPGGGGQGGYGGDYGGGWGQQGGGGQGGWGGPQQQQGGGGWGQQGGGGQGGWGGPQQQQQGGWGGPQQGGGGGGWGGQGQQQGGWGGQSGAQQWAHAQGGNRNY
soluble on expression in E. coli: not soluble

MTTNKDHFMAKIQLVAQANLPTEYGIFKMVGFEFPDTKKEHVALVMGDISNADEPVLARIHSECLTGDALHSLKCDCGFQLATALKQIQEEGRGVLIYHREEGRGIGLINKIRAYSLQDKGMDTIEANLALGFKADERNFEVCADMFELLGVKKVRLMTNNPEKVETMKKAGINVVERVPLNVGENRYNTKYLDTKAKKMGHYIVHNNDEQHLMTCPHCQEEIILEHHHHHH
soluble on expression in E. coli: soluble

MARKKQFDYFGELNQLATNAYEAAKVLQEIVDNYSLENLVKKSEAIHQLEKENDEIVRKILNELYISFITPIDREDIVDITDHLDNIIDSINSLSYLLDHLVVEEMIAPALELTAYIVKATEGVKSATKEFAKFKNSKTLVSLIDEVNTIESQGDKLYSSAMKDLMTNEKDLLKVIKWKDVYDQLERTINDCESAVNIIVGIVIKNTLEHHHHHH
soluble on expression in E. coli: soluble

EQGREPSWGFTEKSRTRDIPETLVPLITVTPSTELYRITGWGALEGHKVFYHETYINPEVAPGFIEQLENHSFSAVWEKCYQKETVVKKLIFKPVRMPGDISKYLGGSAGMPAILIEKHRADQQGNIVQIDIEYWRFEAVDLIINL
soluble on expression in E. coli: not soluble

MGSDKIHHHHHHVPNFLPINTILVPQGAEYKAVCRGLNGVTGSIPTVVAIPVGMKPLLKYLHQGQFLAPKSRVLIMGICGSLSDRYRVGDIVLYQDCIYQGKLLECDRTFTAQLHSSLSEKVSLVKSLTSDRMIWSAAEKLHLGETLAADVVDMEGFTALEFFNVGGVAVTMLRVVSDDCQHDIPDLTSAINSDGSLNPFSLAMAMLRQPLAATRLIRGSLTALKVLEQVTNMLFSGNRPE
soluble on expression in E. coli: not soluble

MIARKRRARTIHSRYPIGIYGSIVMTDIAQLLGKDADNLLQHRCMTIPSDQLYLPGHDYVDRVMIDNNRPPAVLRNMQTLYNTGRLAGTGYLSILPVDQGVEHSAGASFAANPLYFDPKNIVELAIEAGCNCVASTYGVLASVSRRYAHRIPFLVKLNHNETLSYPNTYDQTLYASVEQAFNMGAVAVGATIYFGSEESRRQIEEISAAFERAHELGMVTVLWAYLRNSAFKKDGVDYHVSADLTGQANHLAATIGADIVKQKMAENNGGYKAINYGYTDDRVYSKLTSENPIDLVRYQLANCYMGRAGLINSGGAAGGETDLSDAVRTAVINKRAGGMGLILGRKAFKKSMADGVKLINAVQDVYLDSKITIA
soluble on expression in E. coli: soluble

MLPVSCKLPNMGTYQSYLSSSMPAGCVLPVGGNFEILLHYYLLNYAKKCHQSEETMVSMIIANALLGIPKVLYKSKTGKYSFPHTYIRAVHALQTNQPLVSSQTGLESVMGKYQLLTSVLQCLTKILTIDMVITVKRHPQKVHNQDSEDELLEHHHHHH
soluble on expression in E. coli: not soluble
